From US20230057012A1, “TGFB INHIBITORS AND USE THEREOF” (Scholar Rock, Inc., priority 2020, published 2023)
“Also recorded” adds a separate entry of the source.

Columns and labels:
hGARP-proTGFβ1 [1] = target: T1, hGARP-proTGFβ1 (Homo sapiens, UniProt P01137); experiment: Octet binding kinetics (BLI); settings: Fab in solution, immobilized biotinylated antigen
T1 construct: biotin (the antigen complex is biotinylated); made in house
Procedure: (§1) The table below exemplifies binding kinetics of the listed antibodies (e.g., Fabs) obtained by OCTET®-based binding assays. The experiments were conducted with immobilized, biotinylated antigen and Fab fragments (e.g., test antibodies) in solution.
(§2) In some embodiments, the binding affinity of an antibody, or antigen-binding portion thereof, to an antigen (e.g., protein complex), such as presenting molecule-proTGFβ1 complexes, is determined using an Octet assay. In some embodiments, an Octet assay is an assay that determines one or more a kinetic parameters indicative of binding between an antibody and antigen. In some embodiments, an OCTET® system (FORTEBIO®, Menlo Park, Calif.) is used to determine the binding affinity of an antibody, or antigen-binding portion thereof, to presenting molecule-proTGFβ1 complexes. For example, binding affinities of antibodies may be determined using the FORTEBIO® Octet QKe dip and read label free assay system utilizing bio-layer interferometry. In some embodiments, antigens are immobilized to biosensors (e.g., streptavidin-coated biosensors) and the […] are presented in solution at high concentration (50 μg/mL) to measure binding interactions. In some embodiments, the binding affinity of an antibody, or antigen-binding portion thereof, to a presenting molecule-proTGFβ1 complex is determined using the protocol outlined in Table 14.
(§3) The protocol used to measure the affinity of the antibodies to the complexes provided herein is summarized in Table 14 below, and a summary list of affinity profiles of exemplary antibodies of the present disclosure is provided in Table 6 herein.

hLTBP1-proTGFβ1 [2] = target: T2, hLTBP1-proTGFβ1 (Homo sapiens, UniProt P01137); experiment: Octet binding kinetics (BLI); settings: Fab in solution, immobilized biotinylated antigen
T2 construct: biotin (the antigen complex is biotinylated); made in house
Procedure: as §1, §2, §3

hLTBP3-proTGFβ1 [3] = target: T3, hLTBP3-proTGFβ1 (Homo sapiens, UniProt P01137); experiment: Octet binding kinetics (BLI); settings: Fab in solution, immobilized biotinylated antigen
T3 construct: biotin (the antigen complex is biotinylated); made in house
Procedure: as §1, §2, §3

hGARP-proTGFβ1 [4] = target: T1, hGARP-proTGFβ1; experiment: Biacore SPR Fab binding kinetics
Procedure: (§4) Among these antibodies, Ab42, Ab46 and Ab50 were selected for further evaluation. Surface plasmon resonance (SPR) was used to measure binding kinetics using a BIACORE® system. Association and dissociation kinetics of Fab fragments of Ab42, Ab46, Ab50 and a reference antibody (shown as “Ref”), to antigen complexes were measured, and resulting equilibrium dissociation constants (KD) are provided below. Experiments were carried out with eight types of LLCs, namely, hLTBP1-proTGFβ1, mLTBP1-proTGFβ1, hLTBP3-proTGFβ1, mLTBP3-proTGFβ1, hGARP-proTGFβ1, mGARP-proTGFβ1, hLRRC33-proTGFβ1 and mLRRC33-proTGFβ1.
(§5) In vitro binding kinetics (on/off rates) were measured in Biacore-based assays and affinities were determined against all four known LLCs using both human and murine counterparts for each. Based on the association rate and dissociation rate, KD was calculated for each. In addition, relative affinities, as compared to the reference antibody as a benchmark, were calculated and expressed as “fold difference” relative to the reference antibody.
(§6) A BIACORE® system was employed to determine the monovalent binding affinity and the kinetic parameters for antigen binding of test antibodies. The binding kinetics were evaluated by surface plasmon resonance using Biacore 8K (GE Healthcare). A Biotin CAP sensor chip was used to capture the biotinylated antigens. Fabs at various concentrations (0 nM, 0.62 nM, 1.25 nM, 2.5 nM, 5 nM and 10 nM) were injected over the captured antigens. Multi-cycle kinetics was employed where each analyte concentration was injected in a separate cycle and the sensor chip surface was regenerated after each cycle. All the assays were carried out in freshly prepared 1× HBS-EP+ buffer (10 mM HEPES, 150 mM NaCl, 3 mM EDTA, 0.05% Tween20, pH 7.4). Data for all the analyte concentrations for each interaction were fit globally to a 1:1 binding model to obtain the kinetic parameters. The Sensorgram for 0 nM analyte concentration was used as reference.
(§7) The binding kinetics of antibody interactions with each of the antigen complexes, human LTBP1-ProTGFβ1, human LTBP3-ProTGFβ1, human GARP-ProTGFβ1, and human LRRC33-ProTGFβ1, were evaluated by surface plasmon resonance. Binding kinetics was evaluated by surface plasmon resonance using a BIACORE® 8K (GE) instrument. Biotinylated antigens were captured on a Biotin CAP chip and the Fab fragments of the antibodies were used as analytes. Sensorgrams for Fab binding at variable concentrations (0.6-10 nM) were globally fit to obtain the kinetic parameters.
(§8) Binding kinetics for the Fabs were evaluated against each of the four human antigens, LTBP1-ProTGFβ1, LTBP3-ProTGFβ1, GARP-ProTGFβ1, and LRRC33-ProTGFβ1. […] These experiments were repeated.

hLRRC33-proTGFβ1 = target: T4, hLRRC33-proTGFβ1 (Homo sapiens, UniProt P01137); experiment: Biacore SPR Fab binding kinetics
T4 construct: biotin (the antigen complex is biotinylated); made in house
Procedure: as §4, §5, §6, §7, §8

hLTBP1-proTGFβ1 [5] = target: T2, hLTBP1-proTGFβ1; experiment: Biacore SPR Fab binding kinetics
Procedure: as §4, §5, §6, §7, §8

hLTBP3-proTGFβ1 [6] = target: T3, hLTBP3-proTGFβ1; experiment: Biacore SPR Fab binding kinetics
Procedure: as §4, §5, §6, §7, §8

mGARP-proTGFβ1 [7] = target: T5, mGARP-proTGFβ1 (Homo sapiens, UniProt P01137); experiment: Biacore SPR Fab binding kinetics; set-up: species or system mouse; settings: Table 10
T5 construct: biotin (the antigen complex is biotinylated); made in house
Procedure: as §4, §5, §6

mGARP-proTGFβ1 [8] = target: T6, mGARP-proTGFβ1; experiment: Biacore SPR Fab binding kinetics; set-up: species or system mouse; settings: Table 10
T6 construct: biotin (the antigen complex is biotinylated); made in house
Procedure: as §4, §5, §6

mLRRC33-proTGFβ1 [9] = target: T7, mLRRC33-proTGFβ1 (Homo sapiens, UniProt P01137); experiment: Biacore SPR Fab binding kinetics; set-up: species or system mouse; settings: Table 12
T7 construct: biotin (the antigen complex is biotinylated); made in house
Procedure: as §4, §5, §6

mLRRC33-proTGFβ1 [10] = target: T8, mLRRC33-proTGFβ1; experiment: Biacore SPR Fab binding kinetics; set-up: species or system mouse; settings: Table 12
T8 construct: biotin (the antigen complex is biotinylated); made in house
Procedure: as §4, §5, §6

mLTBP1-proTGFβ1 [11] = target: T9, mLTBP1-proTGFβ1 (Homo sapiens, UniProt P01137); experiment: Biacore SPR Fab binding kinetics; set-up: species or system mouse; settings: Table 6
T9 construct: biotin (the antigen complex is biotinylated); made in house
Procedure: as §4, §5, §6

mLTBP1-proTGFβ1 [12] = target: T10, mLTBP1-proTGFβ1; experiment: Biacore SPR Fab binding kinetics; set-up: species or system mouse; settings: Table 6
T10 construct: biotin (the antigen complex is biotinylated); made in house
Procedure: as §4, §5, §6

mLTBP3-proTGFβ1 [13] = target: T11, mLTBP3-proTGFβ1 (Homo sapiens, UniProt P01137); experiment: Biacore SPR Fab binding kinetics; set-up: species or system mouse; settings: Table 8
T11 construct: biotin (the antigen complex is biotinylated); made in house
Procedure: as §4, §5, §6

mLTBP3-proTGFβ1 [14] = target: T12, mLTBP3-proTGFβ1; experiment: Biacore SPR Fab binding kinetics; set-up: species or system mouse; settings: Table 8
T12 construct: biotin (the antigen complex is biotinylated); made in house
Procedure: as §4, §5, §6

LLCs = experiment: ELISA binding to LLCs; settings: hIgG4; FIGS. 3 and 4
CDHFD mice = experiment: choline-deficient high fat diet (CDHFD) liver fibrosis model; assay type: in vivo
[15] = test system: Wistar-Han rats on a CDHF diet; experiment: CDHFD target engagement study in rats; assay type: in vivo
Procedure: A similar study was run in 10-12 week old male Wistar-Han rats as follows: rats were fed on a CDHF diet for 12 weeks and then randomized. A first dose of the negative control (“HuNEG” IgG4, 30 mg/kg, n=6) or Ab46 (3, 10, and 30 mg/kg, n=8) was given on Day 1, and a second dose was given on Day 3. Treatment with a TGF-β type 1 receptor (ALK5) kinase inhibitor (ALK5i, 10 mg/kg) was used as a positive control. Tissue collection (left lateral lobe) was performed on Day 5. All rats had detectable serum antibody exposure. […] The study was repeated with a broader dose range: rats were fed on a CDHF diet for 12 weeks and then randomized. A single dose of 0.3 mg/kg, 1 mg/kg, 3 mg/kg, 10 mg/kg, or 30 mg/kg of Ab46 was given on Day 1, and tissue collection was performed after 48 hours.

T4 sequence (P01137 30-390): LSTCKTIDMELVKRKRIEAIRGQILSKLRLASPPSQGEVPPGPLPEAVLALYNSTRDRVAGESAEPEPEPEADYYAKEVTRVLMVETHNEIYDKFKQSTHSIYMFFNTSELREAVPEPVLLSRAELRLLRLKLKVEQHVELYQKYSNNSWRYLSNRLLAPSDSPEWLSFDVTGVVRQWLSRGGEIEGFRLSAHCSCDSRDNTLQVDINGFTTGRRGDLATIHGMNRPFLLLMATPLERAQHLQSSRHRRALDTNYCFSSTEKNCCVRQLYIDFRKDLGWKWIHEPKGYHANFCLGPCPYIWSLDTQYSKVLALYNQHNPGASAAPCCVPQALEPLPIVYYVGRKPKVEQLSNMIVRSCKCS
T4 sequence (Q86YC3 with tags, fused parts or gaps partner limits assumed): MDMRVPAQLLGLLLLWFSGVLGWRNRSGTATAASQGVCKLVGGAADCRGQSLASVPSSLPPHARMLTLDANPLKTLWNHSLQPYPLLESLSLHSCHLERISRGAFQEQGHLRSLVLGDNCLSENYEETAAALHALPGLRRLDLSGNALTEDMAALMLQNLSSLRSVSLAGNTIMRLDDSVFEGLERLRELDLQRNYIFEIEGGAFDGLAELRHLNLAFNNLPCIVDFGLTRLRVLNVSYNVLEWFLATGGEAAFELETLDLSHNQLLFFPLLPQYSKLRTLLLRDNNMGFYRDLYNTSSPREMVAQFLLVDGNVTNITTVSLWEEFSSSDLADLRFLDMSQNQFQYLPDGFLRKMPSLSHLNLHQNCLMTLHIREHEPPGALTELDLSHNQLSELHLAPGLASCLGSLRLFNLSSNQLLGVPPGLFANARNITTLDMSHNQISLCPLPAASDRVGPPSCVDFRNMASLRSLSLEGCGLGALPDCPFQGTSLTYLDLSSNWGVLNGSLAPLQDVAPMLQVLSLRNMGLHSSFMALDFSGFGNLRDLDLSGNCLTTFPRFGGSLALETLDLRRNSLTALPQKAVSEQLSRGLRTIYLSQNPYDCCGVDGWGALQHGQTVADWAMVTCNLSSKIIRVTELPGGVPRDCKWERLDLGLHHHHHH
T1 sequence (P01137 30-390): as the sequence (P01137 30-390) above
T1 sequence (Q14392 18-627 partner limits assumed): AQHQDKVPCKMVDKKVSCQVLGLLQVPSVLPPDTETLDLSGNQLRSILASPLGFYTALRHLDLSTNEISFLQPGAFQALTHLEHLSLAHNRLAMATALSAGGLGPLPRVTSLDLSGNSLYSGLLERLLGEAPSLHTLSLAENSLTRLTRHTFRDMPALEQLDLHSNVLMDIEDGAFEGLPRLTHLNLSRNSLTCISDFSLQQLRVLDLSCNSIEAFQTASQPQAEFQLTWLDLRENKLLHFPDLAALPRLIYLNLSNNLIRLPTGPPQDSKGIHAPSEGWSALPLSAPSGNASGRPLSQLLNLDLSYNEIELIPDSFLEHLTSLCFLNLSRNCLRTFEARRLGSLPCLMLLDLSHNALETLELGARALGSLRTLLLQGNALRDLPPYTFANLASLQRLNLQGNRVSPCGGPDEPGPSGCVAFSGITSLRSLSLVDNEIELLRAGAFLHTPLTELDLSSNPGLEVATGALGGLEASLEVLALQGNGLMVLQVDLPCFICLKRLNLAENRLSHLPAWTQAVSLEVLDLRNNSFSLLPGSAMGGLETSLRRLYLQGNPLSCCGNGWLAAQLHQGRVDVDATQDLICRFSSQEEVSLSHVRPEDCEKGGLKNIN
T2 sequence (P01137 30-390): as the sequence (P01137 30-390) above
T2 sequence (Q14766 347-1721 partner limits assumed): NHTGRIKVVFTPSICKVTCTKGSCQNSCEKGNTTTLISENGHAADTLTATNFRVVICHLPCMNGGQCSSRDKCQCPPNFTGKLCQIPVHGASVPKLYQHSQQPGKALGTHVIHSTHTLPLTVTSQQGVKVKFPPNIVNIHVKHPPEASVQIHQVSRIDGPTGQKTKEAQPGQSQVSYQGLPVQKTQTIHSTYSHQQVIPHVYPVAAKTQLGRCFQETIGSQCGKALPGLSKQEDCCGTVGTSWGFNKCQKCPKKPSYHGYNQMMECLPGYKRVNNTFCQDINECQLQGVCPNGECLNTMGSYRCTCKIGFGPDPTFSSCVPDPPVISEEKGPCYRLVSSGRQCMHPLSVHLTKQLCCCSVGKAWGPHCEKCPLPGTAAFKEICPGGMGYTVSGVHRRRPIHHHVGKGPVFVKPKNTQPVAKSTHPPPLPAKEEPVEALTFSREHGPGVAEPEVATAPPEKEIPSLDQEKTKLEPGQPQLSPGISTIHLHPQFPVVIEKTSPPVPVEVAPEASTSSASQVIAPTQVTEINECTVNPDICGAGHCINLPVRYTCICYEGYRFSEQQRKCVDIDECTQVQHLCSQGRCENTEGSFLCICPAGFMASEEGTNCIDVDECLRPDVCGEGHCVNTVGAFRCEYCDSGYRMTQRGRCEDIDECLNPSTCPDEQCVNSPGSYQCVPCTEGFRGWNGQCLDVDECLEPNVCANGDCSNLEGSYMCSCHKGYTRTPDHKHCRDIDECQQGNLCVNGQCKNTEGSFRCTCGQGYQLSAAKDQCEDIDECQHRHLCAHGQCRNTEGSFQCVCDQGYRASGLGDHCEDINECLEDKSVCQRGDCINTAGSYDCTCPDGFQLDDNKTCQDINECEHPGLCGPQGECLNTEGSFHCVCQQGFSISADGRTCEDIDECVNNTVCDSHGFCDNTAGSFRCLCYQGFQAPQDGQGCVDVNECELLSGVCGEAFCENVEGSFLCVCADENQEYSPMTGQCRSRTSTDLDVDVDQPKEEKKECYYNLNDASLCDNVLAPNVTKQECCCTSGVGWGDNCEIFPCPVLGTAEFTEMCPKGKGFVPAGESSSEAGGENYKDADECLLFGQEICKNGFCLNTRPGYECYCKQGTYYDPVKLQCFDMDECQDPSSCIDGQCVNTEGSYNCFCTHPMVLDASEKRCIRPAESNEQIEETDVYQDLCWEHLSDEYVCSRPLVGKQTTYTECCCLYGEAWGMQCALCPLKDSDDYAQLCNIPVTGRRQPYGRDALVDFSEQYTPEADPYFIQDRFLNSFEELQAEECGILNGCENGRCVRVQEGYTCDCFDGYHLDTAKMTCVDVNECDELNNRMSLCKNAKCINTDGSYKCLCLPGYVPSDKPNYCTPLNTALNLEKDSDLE
T3 sequence (P01137 30-390): as the sequence (P01137 30-390) above
T3 sequence (Q9NS15 44-1303 partner): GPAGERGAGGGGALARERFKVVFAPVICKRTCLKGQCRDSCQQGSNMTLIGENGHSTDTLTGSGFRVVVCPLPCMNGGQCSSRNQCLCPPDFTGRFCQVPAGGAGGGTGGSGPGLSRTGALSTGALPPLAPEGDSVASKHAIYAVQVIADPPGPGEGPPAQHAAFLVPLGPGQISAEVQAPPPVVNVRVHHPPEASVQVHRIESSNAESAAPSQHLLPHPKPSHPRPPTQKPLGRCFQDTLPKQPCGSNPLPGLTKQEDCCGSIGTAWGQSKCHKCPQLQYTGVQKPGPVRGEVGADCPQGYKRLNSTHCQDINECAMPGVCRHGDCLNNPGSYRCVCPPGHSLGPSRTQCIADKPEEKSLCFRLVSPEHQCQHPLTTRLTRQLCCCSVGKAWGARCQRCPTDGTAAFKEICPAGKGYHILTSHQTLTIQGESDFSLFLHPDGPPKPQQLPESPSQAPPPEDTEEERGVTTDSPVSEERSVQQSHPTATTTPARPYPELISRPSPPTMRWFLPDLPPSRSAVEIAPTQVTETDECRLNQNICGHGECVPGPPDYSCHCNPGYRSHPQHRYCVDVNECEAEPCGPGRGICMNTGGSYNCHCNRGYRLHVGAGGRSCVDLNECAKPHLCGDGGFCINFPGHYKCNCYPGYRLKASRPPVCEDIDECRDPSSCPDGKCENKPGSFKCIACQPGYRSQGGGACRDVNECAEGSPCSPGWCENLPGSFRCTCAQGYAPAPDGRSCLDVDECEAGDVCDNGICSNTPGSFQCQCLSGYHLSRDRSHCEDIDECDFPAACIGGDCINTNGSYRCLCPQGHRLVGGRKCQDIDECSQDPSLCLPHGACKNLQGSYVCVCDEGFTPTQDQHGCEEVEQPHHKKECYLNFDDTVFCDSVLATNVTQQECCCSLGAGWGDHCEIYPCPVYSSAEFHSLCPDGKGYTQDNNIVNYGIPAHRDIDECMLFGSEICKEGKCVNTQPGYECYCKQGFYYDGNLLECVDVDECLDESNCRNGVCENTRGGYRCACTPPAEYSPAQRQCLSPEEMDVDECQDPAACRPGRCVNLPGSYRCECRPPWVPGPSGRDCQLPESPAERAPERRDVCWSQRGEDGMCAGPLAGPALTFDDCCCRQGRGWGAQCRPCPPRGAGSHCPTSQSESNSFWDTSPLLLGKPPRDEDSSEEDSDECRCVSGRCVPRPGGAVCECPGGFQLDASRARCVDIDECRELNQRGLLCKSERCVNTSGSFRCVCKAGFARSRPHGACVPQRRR
T6 sequence (P01137 30-390): as the sequence (P01137 30-390) above
T6 sequence (G3XA59 18-628 partner limits assumed): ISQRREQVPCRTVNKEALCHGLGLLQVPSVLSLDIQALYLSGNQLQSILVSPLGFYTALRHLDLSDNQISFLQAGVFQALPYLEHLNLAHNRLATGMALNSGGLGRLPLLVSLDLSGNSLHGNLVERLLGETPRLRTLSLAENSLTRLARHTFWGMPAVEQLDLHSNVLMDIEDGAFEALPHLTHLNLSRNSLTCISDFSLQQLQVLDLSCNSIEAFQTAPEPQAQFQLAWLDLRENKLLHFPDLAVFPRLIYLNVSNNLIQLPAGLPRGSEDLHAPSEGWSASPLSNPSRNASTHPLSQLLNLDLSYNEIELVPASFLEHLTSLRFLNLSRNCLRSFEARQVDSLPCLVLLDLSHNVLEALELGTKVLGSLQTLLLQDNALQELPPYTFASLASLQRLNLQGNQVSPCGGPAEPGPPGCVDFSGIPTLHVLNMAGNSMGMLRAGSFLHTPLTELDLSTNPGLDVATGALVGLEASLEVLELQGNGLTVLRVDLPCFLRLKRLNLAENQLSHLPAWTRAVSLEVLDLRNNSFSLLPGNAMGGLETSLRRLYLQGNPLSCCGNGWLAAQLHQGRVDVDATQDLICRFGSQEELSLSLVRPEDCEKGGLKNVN

KOFF (hGARP-proTGFβ1 [1]): 0.00029 s⁻¹
KON (hGARP-proTGFβ1 [1]): 7.03E+05 M^−1/s^−1
KOFF (hLTBP1-proTGFβ1 [2]): 4.98e-05 s⁻¹
KON (hLTBP1-proTGFβ1 [2]): 7.03E+05 M^−1/s^−1
KOFF (hLTBP3-proTGFβ1 [3]): 0.000438 s⁻¹
KON (hLTBP3-proTGFβ1 [3]): 6.19E+05 M^−1/s^−1
KOFF (hGARP-proTGFβ1 [4]; Biacore 8K, Table 22): 0.000359 s⁻¹
kon (hGARP-proTGFβ1 [4]; Biacore 8K, Table 22): 1.89e+06 M⁻¹ s⁻¹
KOFF (hGARP-proTGFβ1 [4]; Biacore, Table 9): 0.000222 s⁻¹
KON (hGARP-proTGFβ1 [4]; Biacore, Table 9): 9.65E+05 M^−1/s^−1
KOFF (hLRRC33-proTGFβ1; Biacore 8K, Table 22): 0.000162 s⁻¹
kon (hLRRC33-proTGFβ1; Biacore 8K, Table 22): 1.36e+06 M⁻¹ s⁻¹
KOFF (hLRRC33-proTGFβ1; Biacore, Table 11): 0.000128 s⁻¹
KON (hLRRC33-proTGFβ1; Biacore, Table 11): 1.52E+06 M^−1/s^−1
KOFF (hLTBP1-proTGFβ1 [5]; Biacore 8K, Table 22): 8.52e-05 s⁻¹
kon (hLTBP1-proTGFβ1 [5]; Biacore 8K, Table 22): 2.44e+06 M⁻¹ s⁻¹
KOFF (hLTBP1-proTGFβ1 [5]; Biacore, Table 5): 8.81e-05 s⁻¹
KON (hLTBP1-proTGFβ1 [5]; Biacore, Table 5): 1.75E+06 M^−1/s^−1
time bound to the antigen relative to the reference antibody (hLTBP1-proTGFβ1 [5]; SPR, FIG. 2, antigen not given): more than 50 times
t1/2 (dissociation) (hLTBP1-proTGFβ1 [5]; SPR, FIG. 2, antigen not given, values fit the KOFF of Table 5): over 130 minutes
KOFF (hLTBP3-proTGFβ1 [6]; Biacore 8K, Table 22): 0.000195 s⁻¹
kon (hLTBP3-proTGFβ1 [6]; Biacore 8K, Table 22): 1.78e+06 M⁻¹ s⁻¹
KOFF (hLTBP3-proTGFβ1 [6]; Biacore, Table 7): 0.000128 s⁻¹
KON (hLTBP3-proTGFβ1 [6]; Biacore, Table 7): 1.00E+06 M^−1/s^−1
KON (mGARP-proTGFβ1 [7]): 1.02E+06 M^−1/s^−1
KOFF (mGARP-proTGFβ1 [8]): 0.000278 s⁻¹
KON (mLRRC33-proTGFβ1 [9]): 1.26E+06 M^−1/s^−1
KOFF (mLRRC33-proTGFβ1 [10]): 0.000112 s⁻¹
KON (mLTBP1-proTGFβ1 [11]): 1.85E+06 M^−1/s^−1
KOFF (mLTBP1-proTGFβ1 [12]): 9.87e-05 s⁻¹
KON (mLTBP3-proTGFβ1 [13]): 1.20E+06 M^−1/s^−1
KOFF (mLTBP3-proTGFβ1 [14]): 0.000115 s⁻¹
binding by ELISA (LLCs): Specific and selective binding
B1: Ab46: activation inhibitor of TGFβ1; H-CDR3 VSGHWDYD, L-CDR2 AASGLES, L-CDR3 QQTYGVPLT (Table 3) (antibody, V domains shown)
VH: EVQLLESGGGLVQPGGSLRLSCAASGFTFADYAMTWVRQAPGKGLEWVSAISGSGAATYFADSVKGRFTISRDNSKNTLYLQMNSLRAEDTAVYYCARVSSGHWDYDYWGQGTLVTVSS
VL: DIQLTQSPSSLSASVGDRVTITCRASQSISSYLNWYQQKPGKAPKLLIYAASGLESGVPSRFSGSGSGTDFTLTISSLQPEDFATYYCQQTYGVPLTFGGGTKVEIK
% positive pSMAD2 nuclei in liver (CDHFD mice; 30 mg/kg on Day 1 and Day 3 after ten weeks of CDHFD): Significant reduction in % positive pSMAD2 nuclei
ratio of phosphorylated versus total SMAD2/3 in the medial lobe (ELISA) (CDHFD mice; 3, 10 and 30 mg/kg on Day 1 and Day 3 after ten weeks of CDHFD, tissue Day 5, p<0.05): Significant reduction in pSMAD2/3
reduction in % pSMAD2 nuclei compared to comparable doses of Ab2 (CDHFD mice; data not shown): greater
% pSMAD2-positive nuclei, left lateral lobe ([15]; 3, 10 and 30 mg/kg on Day 1 and Day 3 after 12 weeks of CDHFD, tissue Day 5): suppression of SMAD2 phosphorylation; also recorded: able to suppress phosphorylation of SMAD2
reduction in percentage of pSMAD2-positive nuclei compared with Ab2 ([15]; rat, in vivo): greater
% pSMAD2-positive nuclei ([15]; single dose 10 mg/kg and 30 mg/kg on Day 1, tissue after 48 hours): appeared to fully suppress SMAD2 phosphorylation; also recorded: significant reduction of pSMAD2-positive nuclei
